Measured values: patent US20160200831A1 (Sanofi, published 2016)

Legend:
[1] = molecular target: T1, glycosylated human PAI-1 (active form) (human, UniProt P05121 24-402, glycosylated); assay: Biacore (summary table)
T1 construct: bought (Molecular Innovations / Innovative Research); also called gly hPAI-1; Human Glycosylated PAI-1
Method: (§1) In kinetics measurement, the antibodies were evaluated in reverse at 25° C. In the reverse assay, PAI-1 antibodies were captured to the anti-mouse IgG Fc antibody surface prepared on CM5 chip followed by injecting the serial 2× dilutions of PAI-1 proteins (human or cyno) starting at 40 nM. A high flow rate was chosen at 50 ul/min to avoid mass transportation limitation. Two thousand seconds was allowed for dissociation time to accommodate for the slow off rate of the selected antibodies. The chip was regenerated by glycine-HCl, pH 1.7 buffer after each round of antibody-PAI-1 binding. Kinetics data analysis was performed using Biacore BIAevaluation software. The sensorgrams were double-referenced by subtracting the reference flow cell values and the blank buffer values. The sensorgrams were fitted by using the simulated kinetics 1:1 (Langmuir) model with local Rmax.

human PAI-1 [2] = molecular target: T2, human PAI-1 (human, UniProt P05121 24-402); assay: Biacore reverse assay, mAb captured by anti-mouse IgG Fc, 25 C; reverse assay: B28 captured by anti-mouse IgG Fc, PAI-1 injected, 25 C
T2 construct: also used for endogenous PAI-1 of human plasma, liver lysate and lung fibroblasts; also called hPAI-1; hPAI
T2 sequence (P05121 24-402 limits assumed): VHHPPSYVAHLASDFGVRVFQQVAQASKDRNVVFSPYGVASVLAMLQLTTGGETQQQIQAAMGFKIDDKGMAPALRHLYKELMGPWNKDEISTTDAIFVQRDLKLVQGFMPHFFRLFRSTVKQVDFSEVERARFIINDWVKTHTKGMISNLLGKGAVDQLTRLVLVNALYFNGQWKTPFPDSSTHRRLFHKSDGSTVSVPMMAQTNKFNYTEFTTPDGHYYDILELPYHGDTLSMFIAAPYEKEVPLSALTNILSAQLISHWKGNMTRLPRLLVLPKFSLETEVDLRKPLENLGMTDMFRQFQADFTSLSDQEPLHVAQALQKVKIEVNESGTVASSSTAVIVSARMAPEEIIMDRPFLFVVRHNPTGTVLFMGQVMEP
Method: as §1

[3] = molecular target: T1, glycosylated human PAI-1 (active form); assay: cell-based or functional assay
human PAI-1 [4] = molecular target: T2, human PAI-1; assay: cell-based or functional assay
[5] = molecular target: T1, glycosylated human PAI-1 (active form); assay: cell-based or functional assay; remark: listed apart in the source
human PAI-1 [6] = molecular target: T2, human PAI-1; assay: Biacore, hybridoma supernatant; hybridoma supernatant, off-rate screen (class, not a fitted rate)
Method: In the Biacore reverse screening assay, ELISA positive hybridoma supernatants were selected and filtered through 0.2 μm filters before being injected onto Biacore chip surface. Each hybridoma supernatant was injected onto one flow cell of flow cells Fc2-Fc4 and the IgG in the hybridoma supernatant would be captured to the chip surface by anti-mouse IgG Fc mAb, while Fc1 was left alone as reference cells. Human PAI-1 protein in PBS was then injected to Fc1 to Fc4. PBS buffer was also injected over the chip surface as a blank. After subtracting signals of Fc1 and blank buffer runs, the binding affinity (KD)/disassociation rate (kd) of the antibody from the supernatants to PAI-1 protein was analyzed and ranked using Scrubber 2 software.

T1 sequence (P05121 24-402 limits assumed): as above

Kd [1]: 0.65 nM
Kd (human PAI-1 [2]): 0.65 nM
koff (human PAI-1 [2]): 0.000461 s⁻¹
Chromogenic Assays [3]: 1.8 nM
Plasmin Generation [3]: 7.28 nM
EC50, % neutralization of hPAI-1 (chromogenic assay) (human PAI-1 [4]): 2.3 nM
plasmin generation, hepatic stellate cells, IC50abs [5]: 7.28 nM
plasmin generation, hepatic stellate cells, Imax [5]: 90%
koff (human PAI-1 [6]): ≤ 0.0001 s⁻¹
B1: B28 (antibody, mouse IgG2b, V domains shown)
VH: QVQLQQSGAELMKPGASVKISCKATGYTFSISWIEWIKQRPGGLEWIGKILPGSGGANYNEKFKGKATVTADTSSNTVYMQLSSLTSEDSAVYYCARLSTGTRGAFDYWGQGTTLTVSS
VL: DIQLTQSPASLSASVGATVTITCRASENVYSYLAWYQQKQGKSPQLLVYNAKTLAEGVPSRFSGSGSGTQFSLKINYLQPEDFGSYYCQHHYGTPPTFGGGTKVEIKR
notes: mouse IgG2b/kappa; also called mB28; B28 (IgG2b/k)
